Test results taken from the supplement of paper PMC7877785.
± gives the uncertainty stated by the source.

Experiment: self-splicing fitness, log relative to wild type (ln ratio); higher = more splicing; Tetrahymena group I intron in knt gene, E. coli kanamycin selection, DiMSum; sequences stand for … in CUCUCU…GGAGGGAAAAGUUAUCAGGCAUGCACCUGGUAGCUAGUCUUUAAACCAAUAGAUUGCAUCGGUUUAAAAGGCAAGACCGUCAAAUUGCGGGAAAGGGGUCAACAGCCGUUCAGUACCAAGUCUCAGGGGAAACUUUGAGAUGGCCUUGCAAAGGGUAUGGUAAUAAGCUGACGGACAUGGUCCUAACCACGCAGCCAAGUCCUAAGUCAACAGAUCUUCUGUUGAUAUGGAUGCAGUUCACAGACUAAAUGUCGGUCGGGGAAGAUGUAUUCUUCUCAUAAGAUAUAGUCGGACCUCUCCUUAAUGGGAGCUAGCGGAUGAAGUGAUGCAACACUGGAGCCGCUGGGAACUAAUUUGUAUGCGAAAGUAUAUUGAUUAGUUUUGGAGUACUCGUGGUCG
Method in brief: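 A randomised library covering all eight P1ex-region intron nucleotides was built with the intron in the knt kanamycin-resistance gene on pET-22b(+) and held in E. coli BL21(DE3). Cells were grown overnight at 37°C or 30°C on LB agar, with or without 25 μg/mL kanamycin, plus 100 μg/mL carbenicillin, 50 μM IPTG and 0.2% rhamnose, and pooled colonies were amplicon-sequenced on an Illumina HiSeq 2500. DiMSum fitness is the error-weighted combination of wild-type-normalised replicate fold changes, kanamycin versus none.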

## UUAAAGCAAUAUUACGCGUG
30 °C
  self-splicing fitness (ln): -0.256 ± 0.056
37 °C
  self-splicing fitness (ln): -0.26 ± 0.068

## UUAAAGCAAUAUUACGGACG
30 °C
  self-splicing fitness (ln): 0.179 ± 0.079
37 °C
  self-splicing fitness (ln): 0.835 ± 0.14

## UUAAAGCAAUAUUACGGCGG
30 °C
  self-splicing fitness (ln): 0.463 ± 0.11
37 °C
  self-splicing fitness (ln): 0.0127 ± 0.13

## UUAAAGCAAUAUUACGGGAG
30 °C
  self-splicing fitness (ln): -1.34 ± 0.08
37 °C
  self-splicing fitness (ln): -0.293 ± 0.12

## UUAAAGCAAUAUUACGUAGU
30 °C
  self-splicing fitness (ln): -3.87 ± 0.21
37 °C
  self-splicing fitness (ln): -1.9 ± 0.18

## UUAAAGCAAUAUUACGUGGA
30 °C
  self-splicing fitness (ln): -2.45 ± 0.072
37 °C
  self-splicing fitness (ln): -0.864 ± 0.073

## UUAAAGCAAUAUUACGUUAU
30 °C
  self-splicing fitness (ln): -2.14 ± 0.092
37 °C
  self-splicing fitness (ln): -1.23 ± 0.11

## UUAAAGCAAUAUUACGUUCC
30 °C
  self-splicing fitness (ln): -2.36 ± 0.22
37 °C
  self-splicing fitness (ln): -0.947 ± 0.21

## UUAAAGCAAUAUUACGUUGA
30 °C
  self-splicing fitness (ln): -0.721 ± 0.066
37 °C
  self-splicing fitness (ln): -0.0751 ± 0.094

## UUACAGCAAUAUUACGAAAU
30 °C
  self-splicing fitness (ln): -3.69 ± 0.34
37 °C
  self-splicing fitness (ln): -2.59 ± 0.33

## UUACAGCAAUAUUACGAACA
30 °C
  self-splicing fitness (ln): -0.742 ± 0.11
37 °C
  self-splicing fitness (ln): -1.07 ± 0.12

## UUACAGCAAUAUUACGACAG
30 °C
  self-splicing fitness (ln): -1.02 ± 0.068
37 °C
  self-splicing fitness (ln): -0.222 ± 0.083

## UUACAGCAAUAUUACGAGAC
30 °C
  self-splicing fitness (ln): -3.02 ± 0.27
37 °C
  self-splicing fitness (ln): -2.18 ± 0.34

## UUACAGCAAUAUUACGAGGG
30 °C
  self-splicing fitness (ln): -3.1 ± 0.25
37 °C
  self-splicing fitness (ln): -1.62 ± 0.21

## UUACAGCAAUAUUACGAGGU
30 °C
  self-splicing fitness (ln): -3.08 ± 0.22
37 °C
  self-splicing fitness (ln): -2.72 ± 0.23

## UUACAGCAAUAUUACGAUAG
30 °C
  self-splicing fitness (ln): -0.427 ± 0.056
37 °C
  self-splicing fitness (ln): 0.204 ± 0.07

## UUACAGCAAUAUUACGAUCC
30 °C
  self-splicing fitness (ln): -3.16 ± 0.13
37 °C
  self-splicing fitness (ln): -2.28 ± 0.16

## UUACAGCAAUAUUACGCGCG
30 °C
  self-splicing fitness (ln): -0.121 ± 0.099
37 °C
  self-splicing fitness (ln): 0.0717 ± 0.1

## UUACAGCAAUAUUACGCUAG
30 °C
  self-splicing fitness (ln): -0.779 ± 0.11
37 °C
  self-splicing fitness (ln): -0.391 ± 0.11

## UUACAGCAAUAUUACGGGGG
30 °C
  self-splicing fitness (ln): -2.2 ± 0.14
37 °C
  self-splicing fitness (ln): -1.77 ± 0.15

## UUACAGCAAUAUUACGGUCA
30 °C
  self-splicing fitness (ln): -0.595 ± 0.075
37 °C
  self-splicing fitness (ln): -0.209 ± 0.088

## UUACAGCAAUAUUACGGUGA
30 °C
  self-splicing fitness (ln): -1.03 ± 0.099
37 °C
  self-splicing fitness (ln): -0.122 ± 0.14

## UUACAGCAAUAUUACGUCAA
30 °C
  self-splicing fitness (ln): -1.14 ± 0.082
37 °C
  self-splicing fitness (ln): -0.187 ± 0.081
